3 molecules from paper PMC8262862, “A Prevalent Focused Human Antibody Response to the Influenza Virus Hemagglutinin Head Interface” (mBio, 2021) can be followed below.

The labels stand for the following.
B1: H2214 Fab, His tag removed (competitor in BLI) (Fab, V domains shown)
VH: EVQLLESGGGLVQPGGSLRLSCAASGFTFNHYAMTWVRQAPGKGLEWVASSSGSGRSTYYTDSVKGRFSVSRDNSKNTLYLQMNSLRAEDTAVYYCAKSSNYYGSGSYSPDDYYHMDVWGQGTTVTVSG
VL: EIVMTQSPDTLSVSPGERATLSCRASESISSNLAWYQQKPGQVPRLLIYGASTRATGVPARFTGSGSGTEFTLTISSLQSEDFAVYYCQQYNNRLPYTFGQGTKLEIK
B2: D2 H1-1/H3-1 Fab, His-tagged (binding studies) (Fab, V domains shown)
VH: QVQLVQSGGGLVRPGGSLRLSCAASGFTFSSAWMTWVRQAPGKGLEWVANIKEDGSEKYYVDSVKGRFSISRDNAKNSLYLQISSLRAEDTAVYYCARRFVERLWGQSKPYDAVDIWGQGTMVTVSG
VL: DIQMTQSPSSLSASVGDRVTITCRASQSISNYLNWYQQKPGKAPKLLIYVASNLQSGVPSRFSGSGSGTDFALTISSLQPEDFASYYCQQSYSPVTTFGGGTKVEIK
notes: not shown: His6, C-terminal, kept
B3: D1 H1-17/H3-14 Fab, His-tagged (binding studies) (Fab, V domains shown)
VH: QVQLQESGPGLVKPSESLSLTCSVSGGSVSSNLHYWSWIRQLPGKGLEWIGYISYTGSTKYNPSLNGRVTLSIDASKNQFSLELSSVTAADTAVYYCARDFFEKLIADDLNAFDIWGQGTMVTVSG
VL: DIRVTQSPSSLSASVGDRVTITCRASQSISRSLNWYQQRPGKAPKFLIYAASNLQSGVPSRFSGGGSGTDFTLTISSLQPEDFATYYCQETYSRTFGQGTKADIK
notes: as for B2

For the assay, the target named is T1, HA head domain of A/Texas/50/2012(H3N2), monomeric (Influenza A virus A/Texas/50/2012(H3N2), strain).
T1 construct: also called monomeric HA heads
Kind of assay: BLI. The note with it: both partners purified.
For the molecule B1, the binding result is given as “binds”.

B2: the binding result is recorded as “binds”.

On to B3, for which the binding result is recorded as “binds”.
